Reference: US8536117B2, “Oxidant resistant apolipoprotein A-1 and mimetic peptides” (The Cleveland Clinic Foundation, priority 2007, dated 2013)
Numbering of substitutions follows the chain as printed. Entries after “also recorded” stand apart in the source; their conditions may differ.

B1: rh-ApoA1 3MV: rh-ApoA1 with the three internal methionines converted to valines (protein, UniProt P02647 25-267, looked up, variant M86V M112V M148V)
Apolipoprotein A-I: DEPPQSPWDRVKDLATVYVDVLKDSGRDYVSQFEGSALGKQLNLKLLDNWDSVTSTFSKLREQLGPVTQEFWDNLEKETEGLRQEVSKDLEEVKAKVQPYLDDFQKKWQEEVELYRQKVEPLRAELQEGARQKLHELQEKLSPLGEEVRDRARAHVDALRTHLAPYSDELRQRLAARLEALKENGGARLAEYHAKATEHLSTLSEKAKPALEDLRQGLLPVLESFKVSFLSALEEYTKKLNTQ
B2: rh-ApoA1 4WL: rh-ApoA1 with each of the four tryptophan residues altered to leucine (protein, UniProt P02647 25-267, looked up, variant W8L W50L W72L W108L)
Apolipoprotein A-I: B1 Apolipoprotein A-I with W8L, W50L, W72L, V86M, W108L, V112M, V148M
B3: rh-ApoA1 4WF: rh-ApoA1 with each of the four tryptophan residues altered to phenylalanine (protein, UniProt P02647 25-267, looked up, variant W8F W50F W72F W108F)
Apolipoprotein A-I: B1 Apolipoprotein A-I with W8F, W50F, W72F, V86M, W108F, V112M, V148M

What was measured:
[1] = Alpha helix content by CD (K2d algorithm); format: physicochemical; settings: for alpha helix content: K2d algorithm, unmodified protein; for loss of alpha helix content after MPO modification: MPO/H2O2 dose dependent
Source text: We examined the role of ApoA1 tryptophan residues next by altering each of the four tryptophan residues to either leucine (rh-ApoA1 4WL) or phenylalanine (rh-ApoA1 4WF). […] Thus, the loss of efflux and lipid binding activity of the 4WL variant cannot be attributed to loss of helical content.

[2] = test system: RAW 264.7 murine macrophage cells; assay: HOCl (sodium hypochlorite) modification of ApoA1, then ABCA1-dependent cholesterol efflux assay; format: cell-based; settings: increasing doses of HOCl (varying HOCl:ApoA1 mole ratios)
Experimental: (§1) MPO at a final concentration of 57 nmol/L, prepared as previously described, was added to ApoA1 at 100 μg/mL (3.5 μmol/L) that had been extensively dialyzed against MPO reaction buffer. The reaction was initiated by adding hydrogen peroxide at varying mole ratios to ApoA1 in 4 aliquots at 15-minute intervals at 37° C., and continuing the incubation for 90 minutes, at which time 2 mmol/L L-methionine was added to quench the reaction. For chemical modification of ApoA1, sodium hypochlorite (NaOCI) was added to 100 μg/mL ApoA1 in MPO buffer at varying concentrations in 4 aliquots at 15 minutes intervals at 37° C. After a total incubation time of 60 minutes, 2 mmol/L L-metbionine was added to quench the reaction.
(§2) RAW 264.7 murine macrophage cells were labeled with [3H] cholesterol and treated with 0.3 mmol/L 8Br-cAMP to induce ABCA1 activity, as previously described. The cells were washed and chased for 4 hours in serum-free medium in the presence of 0.3 mmol/L 8Br-cAMP and the presence or absence of various ApoA1 preparations. The radioactivity in the chase media was determined after brief centrifugation to pellet debris. Radioactivity in the cells was determined by extraction in hexane:isopropanol (3:2) with the solvent evaporated in a scintillation vial prior to counting. The percent cholesterol efflux was calculated as 100×(medium dpm)/(medium dpm+cell dpm).

[3] = DMPC emulsion clearance assay (lipid binding); format: biochemical; settings: 25 μg protein, 125 μg DMPC, absorbance at 325 nm, 24° C.
Experimental: FIGS. 7 (A-B) illustrate plots showing that rh-ApoA1 4WF binds lipid as well as rh-ApoA1 and its lipid binding activity is resistant to MPO mediated oxidation. A. Dimyristoyl phosphatidylcholine (DMPC) emulsions (125 μg) were prepared and incubated without addition (solid thick line) or with the addition of 25 μg rh-ApoA1 (solid thin line) or rh-ApoA1 4WF (dotted line). Lipid binding and solubilization was monitored by loss of turbidity by reading absorbance at 325 nm over time at 24° C. […] B. rh-ApoA1 (filled circles, solid line) and rh-ApoA1 4WF (open circles, dashed line) were subjected to modification by MPO at varying H2O2:ApoA1 mole ratios. These proteins were then assayed for lipid binding activity by prevention of phospholipase C dependent LDL aggregation. Data are normalized to the lipid binding activity of rh-ApoA1 treated in the absence of H2O2. Data are means±S.D. of triplicate determinations. *, p<0.05; and **, p<0.001 vs. rh-ApoA1 4WF at the same H2O2: ApoA1 mole ratio, respectively, by two tailed t-test.

[4] = test system: RAW 264.7 murine macrophage cells; assay: ABCA1-dependent cholesterol efflux assay; format: cell-based; settings: unoxidised protein/peptide, 4 hr incubation with [3H]cholesterol labeled RAW264.7 cells pretreated with 0.3 mM 8Br-cAMP
Experimental: ApoA1 (filled circles, solid line) and reductively methylated ApoA1 (open circles, dashed line) were subjected to modification by MPO at varying H2O2:ApoA1 mole ratios. These proteins were then assayed for ABCA1 dependent cellular cholesterol acceptor activity during a 4 hr incubation at 5 μg/ml with cholesterol labeled RAW264.7 cells, which had been treated with 0.3 mM 8Br-cAMP to induce ABCA1. Data are means±S.D. of triplicate determinations, when no bars appear, the S.D. is within the symbol.
as §2

[5] = test system: human low density lipoprotein; assay: Lipid binding activity assay: inhibition of phospholipase C (PLC)-mediated aggregation of LDL; format: biochemical; settings: for lipid binding activity after MPO modification: PLC mediated LDL aggregation assay, MPO at varying H2O2:ApoA1 mole ratios
Experimental: as §1
Lipid binding activity of ApoA1 was assessed via the inhibition of phospholipase C (PLC)-mediated aggregation of human low density lipoprotein, performed as previously described. We have previously shown that this assay give results similar to those observed by the DMPC dispersion clearance assay, but it is more sensitive and requires less ApoA1. The final concentration of apoA1 used in this assay as 12.5 μg/mL. which was sufficient to decrease the initial rate LDL aggregation by ≈75%.

[6] = test system: RAW 264.7 murine macrophage cells; assay: MPO/H2O2/Cl- modification of ApoA1, then ABCA1-dependent cholesterol efflux assay; format: cell-based; settings: for MPO mediated loss of cholesterol acceptor activity, high dose: H2O2:apoAI = 15:1, 3MV with or without the N-terminal methionine; for loss of cholesterol acceptor activity: MPO modification at H2O2:ApoA1 ratio of 1.4; for ABCA1-dependent cholesterol acceptor activity after MPO modification: MPO/H2O2/Cl- system at varying (increasing) H2O2:ApoA1 mole ratios
Experimental: as §1, §2

| Molecule | alpha helix content [1] [%] | loss of alpha helix content after MPO modification [1] | cholesterol acceptor (efflux) activity after HOCl treatment [2] | lipid binding activity (DMPC clearance) [3] | ABCA1-dependent cholesterol acceptor activity [4] | lipid binding activity after MPO modification [5] | MPO mediated loss of cholesterol acceptor activity, high dose [6] | loss of cholesterol acceptor activity [6] | ABCA1-dependent cholesterol acceptor activity after MPO modification [6] | decrease of the initial rate of LDL aggregation ([5]; apoA1 final concentration 12.5 μg/mL) | ABCA1-dependent cholesterol acceptor activity ([4]; listed as 4WL variant) | lipid binding activity (DMPC clearance) ([3]; listed as 4WF variant) | ABCA1-dependent cholesterol acceptor activity ([4]; listed as 4WF variant) |
| --- | --- | --- | --- | --- | --- | --- | --- | --- | --- | --- | --- | --- | --- |
| rh-ApoA1: recombinant human ApoA1, with an additional methionine initiation codon and a 6-his tag at the N-terminus | 57 | susceptible to loss of alpha helical content | impaired by increasing doses of HOCl | equivalent activity | yielded ABCA1 dependent cholesterol acceptor activity | diminished lipid binding activity | equally susceptible | negligible loss | inhibited by increasing MPO induced oxidation |  |  |  |  |
| methylated ApoA1: ApoA1 subjected to reductive methylation, leading to 92% lysine modification |  | similarly susceptible |  |  | robust and equivalent |  |  |  | declined in a similar fashion |  |  |  |  |
| ApoA1: human plasma-derived ApoA1 |  | similarly susceptible |  |  | robust and equivalent |  |  |  | declined in a similar fashion | ≈ 75% |  |  |  |
| B1 |  |  |  |  |  |  | equally susceptible | lost about half of its cholesterol acceptor activity | more sensitive to loss of cholesterol acceptor activity at low molar ratios |  |  |  |  |
| B2 | 79 |  |  |  |  |  |  |  |  |  | lost the majority of this activity |  |  |
| B3 | 77 | susceptible to loss of alpha helical content | resistant to this treatment |  |  | resistant to MPO mediated inhibition; also recorded: did not loose its lipid binding activity |  |  | maintained this activity even at an H2O2:ApoA1 ratio of 15 |  |  | equivalent activity | largely retained this activity |
